Results published in US20040115622A1.

Key:
[1] = target: HLA-DR molecule encoded by the allele DRB1*0101 (human); test: competition ELISA vs biotinylated HA 306-318
[2] = target: HLA-DR molecule encoded by the allele DRB1*0401 (human); test: competition ELISA vs biotinylated HA 306-318
[3] = target: HLA-DR molecule encoded by the allele DRB5*0101 (human); test: competition ELISA vs biotinylated HA 306-318
[4] = target: HLA-DR molecule encoded by the allele DRB4*0101 (human); test: competition ELISA vs biotinylated E2/E168
[5] = target: HLA-DR molecule encoded by the allele DRB1*1501 (human); test: competition ELISA vs biotinylated A3 152-166
[6] = target: HLA-DR molecule encoded by the allele DRB1*0701 (human); test: competition ELISA vs biotinylated YKL

Substance: Nef4.6 peptide (positions 79-93 of the HIV-1 Nef protein, Bru strain) (from UniProt P03406 79-93) (peptide; other documents disagree on this pair)
- IC50 [1]: 55 nM
- IC50 [2]: 150 nM
- IC50 [3]: 45 nM

Substance: Nef4.4 peptide (positions 74-88 of the HIV-1 Nef protein, Bru strain) (from UniProt P03406 74-88) (peptide; other documents disagree on this pair)
- IC50 [4]: 550 nM
- IC50 [5]: 667 nM
- IC50 [1]: 350 nM
- IC50 [2]: 225 nM
- IC50 [3]: 700 nM

Substance: Nef4.1 peptide (positions 66-80 of the HIV-1 Nef protein, Bru strain) (from UniProt P03406 66-80) (peptide; other documents disagree on this pair)
- IC50 [1]: 1500 nM

Substance: Nef4.5 peptide (positions 77-91 of the HIV-1 Nef protein, Bru strain) (from UniProt P03406 77-91) (peptide; other documents disagree on this pair)
- IC50 [5]: 1330 nM
- IC50 [1]: 12 nM
- IC50 [2]: 60 nM
- IC50 [3]: 28 nM

Substance: Nef4.2 peptide (positions 68-82 of the HIV-1 Nef protein, Bru strain) (from UniProt P03406 68-82) (peptide; other documents disagree on this pair)
- IC50 [5]: 7000 nM
- IC50 [1]: 250 nM

Substance: Nef4.3 peptide (positions 72-86 of the HIV-1 Nef protein, Bru strain) (from UniProt P03406 72-86) (peptide; other documents disagree on this pair)
- IC50 [4]: 2430 nM
- IC50 [5]: 1930 nM
- IC50 [1]: 2000 nM
- IC50 [2]: 2000 nM
- IC50 [3]: 1500 nM

Substance: Nef4 peptide (positions 66-94 of the HIV-1 Nef protein, Bru strain) (from UniProt P03406 66-94) (peptide; other documents disagree on this pair)
- IC50 [6]: 5000 nM
- IC50 [4]: 225 nM
- IC50 [5]: 750 nM
- IC50 [1]: 55 nM
- IC50 [2]: 45 nM
- IC50 [3]: 12 nM
